The values below come from article PMC11589570, “Critical assessment of LC3/GABARAP ligands used for degrader development and ligandability of LC3/GABARAP binding pockets” (Nature Communications, 2024).

What all share (test): FP
One assay has as its target LC3C_(1-126) (human) (UniProt Q9BXW4).
The next assay concerns the target LC3A_(1-120) (human) (UniProt Q9H492).
Assay [1] concerns the target GABARAPL2_(1-117) (human) (UniProt P60520).

Chain of GABARAPL2_(1-117) (human) (P60520 whole entry): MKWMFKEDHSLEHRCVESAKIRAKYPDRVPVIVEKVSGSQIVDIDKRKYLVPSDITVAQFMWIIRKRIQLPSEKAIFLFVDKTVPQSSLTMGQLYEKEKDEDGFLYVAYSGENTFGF
Chain of LC3C_(1-126) (human) (Q9BXW4 1-126): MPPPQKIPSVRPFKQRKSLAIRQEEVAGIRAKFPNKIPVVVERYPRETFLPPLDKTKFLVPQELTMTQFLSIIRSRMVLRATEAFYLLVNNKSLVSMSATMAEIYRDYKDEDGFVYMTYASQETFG

Take PCM1-LIR: the figures for the Ki (with LC3C_(1-126) (human); in the assay with LC3A_(1-120) (human); in assay [1]) were 84.3 µM, 179 µM and 26.2 µM, respectively.
